The values that follow come from US20200362047A1 (CRESCENDO BIOLOGICS, published 2020).

In test [1] the target is T1, human PSMA expressed on cells (human, UniProt Q04609 1-750).
T1 construct: One molecule for both cell lines (CHO human PSMA, DU145 PSMA); the cell line stands under assay; also called CHO human PSMA; CHO PSMA
The test can be described thus: FMAT, DU145 PSMA cells. As to the method: (§1) Binding of His-tagged molecules to CHO human CD137, CHO parent, CHO human PSMA, DU145 PSMA and DU145 parent cells was assessed using Fluorescence Microvolume Assay Technology (FMAT). All reagents were prepared in FMAT assay buffer (pH 7.4) containing PBS, 0.1% Bovine Serum Albumin, 0.05% Sodium Azide. Serially diluted samples were transferred into 384 well black clear-bottomed assay plates (Costar cat. no. 3655) and incubated for a minimum of 2 hours at room temperature with 1.5 nM Anti-His (Millipore cat. no. 05-949), […] Goat Anti-Mouse Alexa Fluor-488 (Jackson ImmunoResearch cat. no. 115-545-071) and 2000 cells/well pre-stained with DRAQ5 (Thermo Scientific cat. no. 62251). Fluorescence emission was then measured on the TTP Mirrorball plate reader in the FL2 (502 nm-537 nm) and FL5 (677-800 nm) channels following excitation at 488 nm and 640 nm. Data was gated on FL5 perimeter and peak intensity and the FL2 median mean fluorescence intensity of the gated data used for determination of VH binding. Monovalent CD137 specific Humabody® VH, bispecific and trispecific molecules with a CD137 binding arm bound to CHO CD137 expressing cells. Monovalent PSMA specific Humabody® VH, bispecific and trispecific molecules with a PSMA binding arm bound to PSMA expressing cells.

Test [2] has as its target T1, human PSMA expressed on cells. The experiment in a line: FMAT, CHO human PSMA cells. As to the method: as §1
Test [3] has as its target T2, PSMA-his (R&D Systems cat no. 4234-ZN) (human, UniProt Q04609 44-750).
T2 construct: Bought protein; also called Human PSMA; not shown: His tag
The experiment in a line: BLI (Octet RED384), PSMA-his amine-coupled to AR2G sensors, 1:1 model. On the procedure: The kinetics of monovalent and bispecific Humabody VH were determined on a ForteBio Octet RED 384 instrument. To study the interaction with the antigens, CD137-Fc tag protein (Acro Biosystems cat no. 41B-H5258) or PSMA-his (R&D Systems cat no. 4234-ZN) was immobilised onto AR2G biosensors (ForteBio cat no. 18-5082) by amine coupling. Monovalent VH and bispecific molecules were serially diluted (typically 1:2 dilution series starting between 12-25 nM, at the highest concentration) in kinetics buffer (0.1% BSA, 0.02% Tween, 1×PBS) and binding to the immobilised proteins was studied during the association and dissociation phases. PSMA binding was measured using 180 seconds association and 600 seconds dissociation phases. CD137 binding was measured 180 seconds association and 600 seconds dissociation phases. Reference subtracted data were fitted to a 1:1 binding model using the ForteBio Octet Data Analysis software.
(In general: BLI is a label-free optical method that tracks binding on a fibre tip over time.)

Test [4] addresses T3, human CD137 expressed on the surface of CHO cells (human, UniProt Q07011 24-255).
T3 construct: Also used for the Jurkat reporter cells that express human CD137 (functional rows); also called CHO human CD137 cells; CHO huCD137
The test can be described thus: FMAT, CHO human CD137 cells. On the procedure:
as §1

Test [5] deals with T4, mouse CD137Fc protein (Acro Biosystems 41B-M5258) (mouse, UniProt P20334 24-187).
T4 construct: Bought protein; also called mouse CD137 protein; not shown: Fc tag, detected with anti human-Fc
T4 sequence (looked up): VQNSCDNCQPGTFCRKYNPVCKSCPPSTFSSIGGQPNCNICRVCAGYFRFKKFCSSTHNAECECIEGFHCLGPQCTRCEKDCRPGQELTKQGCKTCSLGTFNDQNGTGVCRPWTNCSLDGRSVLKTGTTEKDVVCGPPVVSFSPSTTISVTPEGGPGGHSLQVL
The experiment in a line: HTRF binding assay. As to the method:
(§2) Binding to human CD137Fc recombinant protein (Acro Biosystems 41B-H5258), rhesus CD137Fc recombinant protein (Sino Biologicals cat no. 90847-K02H) and mouse CD137Fc protein (Acro Biosystems 41B-M5258) was measured using an HTRF Binding assay format. All reagents and serially diluted VH were prepared in assay buffer containing PBS, 0.1% BSA and 0.4M Potassium Fluoride. Samples or assay buffer (non-specific binding) were incubated with 0.5 nM human, rhesus or mouse CD137, 1 nM Anti human-Fc Cryptate PAb (Cisbio cat. no. 61HFCKLB) and 20 nM anti His-D2 (CisBio cat no 61HISDLA) in black 384-shallow well assay plates for a minimum of 3 hours at room temperature. Time-resolved fluorescent emission at 620 nm and 665 nm was measured following excitation at 337 nm on the BMG PHERAstar plate reader. The HTRF ratio were calculated ((665 nm emission/620 nm emission)*10000) and the data corrected for (non-specific binding) to give the specific binding signal. VH bound to human and rhesus CD137 but not to mouse CD137 protein.

The target in test [6] is T5, human CD137-human Fc chimeric protein (Acro Biosystems cat no. 41B-H5258) (human, UniProt Q07011 24-186).
T5 construct: Bought protein; The Octet Protein G and Biacore experiments name no catalogue number; also called human CD137Fc recombinant protein; human CD137-Fc recombinant protein; not shown: human IgG1 Fc tag
The test can be described thus: HTRF binding assay. As to the method:
as §2

Test [7] has as its target T6, rhesus CD137Fc recombinant protein (Sino Biologicals cat no. 90847-K02H) (rhesus; human, UniProt H9Z8K9 24-186).
T6 construct: Bought protein; also called rhesus CD137-human IgG1 Fc tagged protein; not shown: human IgG1 Fc tag
T6 sequence: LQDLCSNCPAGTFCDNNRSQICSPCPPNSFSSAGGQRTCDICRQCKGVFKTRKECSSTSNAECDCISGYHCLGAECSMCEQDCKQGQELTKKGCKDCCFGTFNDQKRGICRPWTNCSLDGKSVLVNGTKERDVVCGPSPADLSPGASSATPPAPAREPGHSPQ
The experiment in a line: HTRF binding assay. As to the method: as §2
Background: Time-resolved FRET reads energy transfer from a long-lived donor to a nearby acceptor.

The target of test [8] is T7, CD137 on pre-stimulated human CD8+ T cells (human, UniProt Q07011 24-255).
T7 construct: also called pre-stimulated CD8+ cells; primary T cells
T7 sequence (Q07011 24-255 limits assumed): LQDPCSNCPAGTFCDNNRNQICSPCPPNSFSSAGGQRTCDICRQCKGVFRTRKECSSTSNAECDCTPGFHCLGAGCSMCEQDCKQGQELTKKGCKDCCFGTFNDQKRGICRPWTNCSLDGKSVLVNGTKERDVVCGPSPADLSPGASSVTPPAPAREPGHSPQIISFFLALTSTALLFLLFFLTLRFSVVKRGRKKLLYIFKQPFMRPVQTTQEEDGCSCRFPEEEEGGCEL
The test can be described thus: flow cytometry, PMA/ionomycin-stimulated human CD8+ T cells, mean of 2-3 donors. On the procedure: Binding to primary T cells was measured using flow cytometry. Peripheral blood mononuclear cells (PBMCs) were isolated from human blood by density gradient centrifugation then CD8+ T cells purified using a negative selection isolation kit according to the manufacturer's protocol (Miltenyi Biotech cat no 130-042-401). T-cells were stimulated PMA/Ionomycin for 48-72 hours in RPMI media supplemented with 10% FBS, 2 mM Glutamine, 1× Pen/Strep. Cells were transferred into 96 well plates, blocked for 10 mins with staining buffer (PBS/1% BSA/0.05% Sodium Azide) then incubated with serially diluted VH in staining buffer (PBS/1% BSA) for 30 mins-1 hour at 4° C. Cells were washed by centrifugation then VH binding detected using Anti His antibody (Millipore 05-949) and Goat Anti Mouse Alexa Fluor-488 (Jackson ImmunoResearch cat no. 115-545-071). A Live Dead near IR stain (Molecular Probes cat no. L10119) was used for discrimination of live cells. After further washing cells were fixed and fluorescence measured by flow cytometry.
Background: Flow cytometry measures light scatter and fluorescence of single cells or particles in a stream.

Test [9] addresses T8, human GITR-Fc (R&D Systems cat no. 689-GR) (human, UniProt Q9Y5U5 26-161).
T8 construct: Bought protein; also called GITR (Glucocorticoid-induced TNFR-related); not shown: Fc tag
T8 sequence (looked up): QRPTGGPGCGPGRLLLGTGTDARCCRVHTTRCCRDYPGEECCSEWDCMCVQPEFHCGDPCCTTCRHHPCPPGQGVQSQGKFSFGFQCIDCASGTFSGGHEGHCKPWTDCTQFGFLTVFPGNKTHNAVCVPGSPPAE
The experiment in a line: ELISA, coated GITR-Fc. On the procedure: (§3) Specificity of binding for CD137 over the tumour necrosis factor receptor family members OX40 and GITR (Glucocorticoid-induced TNFR-related) was determined using an ELISA assay. Nunc Maxisorp plates were coated with 1 ug/ml human CD137-Fc recombinant protein (Acro Biosystems 41B-H5258), human GITR-Fc (R&D Systems cat no. 689-GR) human OX40-Fc (R&D Systems cat no. 3388-OX) in sodium carbonate buffer overnight at 4° C. then washed twice with PBS. Non-specific protein interactions were blocked by incubation with 1% (w/v) skimmed milk powder (Marvel®) in PBS/0.1% Tween-20 for 1 hour at room temperature. Plates were washed twice with PBS then VH or antibody control (1 ug/ml) added for 1 hour at room temperature. Following three washes with PBS/0.1% Tween-20 a 1:1000 dilution of anti His-HRP (VH detection) or anti mouse-HRP (positive control mouse monoclonal antibody detection) was added in 1% Marvel/PBS/0.1% Tween-20. The detection antibodies were allowed to bind for 1 hour at room temperature then the plates were washed twice in PBS/0.1% Tween-20 and once in PBS. The ELISA was developed using TMB substrate and the reaction was stopped by the addition of 50 ul 0.5M H₂SO₄ solution. The absorbance at 450 nm was measured using the BMG Pherastar.

Test [10] has as its target T9, human OX40-Fc (R&D Systems cat no. 3388-OX) (human, UniProt P43489 29-216).
T9 construct: Bought protein; not shown: Fc tag
T9 sequence (looked up): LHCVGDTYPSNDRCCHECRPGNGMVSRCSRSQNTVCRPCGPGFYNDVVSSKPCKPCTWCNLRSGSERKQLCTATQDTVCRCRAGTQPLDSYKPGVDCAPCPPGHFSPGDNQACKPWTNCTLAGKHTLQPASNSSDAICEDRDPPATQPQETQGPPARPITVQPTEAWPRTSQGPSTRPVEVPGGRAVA
The test can be described thus: ELISA, coated OX40-Fc. As to the method:
as §3

T1 sequence (Q04609 whole entry): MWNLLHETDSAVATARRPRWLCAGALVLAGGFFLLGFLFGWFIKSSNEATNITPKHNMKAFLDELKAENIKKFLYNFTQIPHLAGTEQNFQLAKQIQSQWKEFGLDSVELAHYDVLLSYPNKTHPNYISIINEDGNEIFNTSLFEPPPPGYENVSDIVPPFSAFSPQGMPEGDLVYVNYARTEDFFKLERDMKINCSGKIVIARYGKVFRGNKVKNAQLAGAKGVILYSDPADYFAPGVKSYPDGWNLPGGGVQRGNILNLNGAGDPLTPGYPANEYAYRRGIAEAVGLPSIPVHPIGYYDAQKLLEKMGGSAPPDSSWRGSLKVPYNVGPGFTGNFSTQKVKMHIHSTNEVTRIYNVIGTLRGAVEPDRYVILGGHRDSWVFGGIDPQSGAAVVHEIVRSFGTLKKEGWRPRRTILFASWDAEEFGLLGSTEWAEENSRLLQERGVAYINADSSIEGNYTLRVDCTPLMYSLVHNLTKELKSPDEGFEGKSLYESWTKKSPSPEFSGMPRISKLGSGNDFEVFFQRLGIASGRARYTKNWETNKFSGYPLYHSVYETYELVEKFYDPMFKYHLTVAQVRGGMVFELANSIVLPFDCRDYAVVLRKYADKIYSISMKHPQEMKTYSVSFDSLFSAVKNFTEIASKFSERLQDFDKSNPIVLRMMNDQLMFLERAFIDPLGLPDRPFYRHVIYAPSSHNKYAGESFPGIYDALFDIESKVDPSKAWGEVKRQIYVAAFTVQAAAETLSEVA
T2 sequence (Q04609 44-750 limits assumed): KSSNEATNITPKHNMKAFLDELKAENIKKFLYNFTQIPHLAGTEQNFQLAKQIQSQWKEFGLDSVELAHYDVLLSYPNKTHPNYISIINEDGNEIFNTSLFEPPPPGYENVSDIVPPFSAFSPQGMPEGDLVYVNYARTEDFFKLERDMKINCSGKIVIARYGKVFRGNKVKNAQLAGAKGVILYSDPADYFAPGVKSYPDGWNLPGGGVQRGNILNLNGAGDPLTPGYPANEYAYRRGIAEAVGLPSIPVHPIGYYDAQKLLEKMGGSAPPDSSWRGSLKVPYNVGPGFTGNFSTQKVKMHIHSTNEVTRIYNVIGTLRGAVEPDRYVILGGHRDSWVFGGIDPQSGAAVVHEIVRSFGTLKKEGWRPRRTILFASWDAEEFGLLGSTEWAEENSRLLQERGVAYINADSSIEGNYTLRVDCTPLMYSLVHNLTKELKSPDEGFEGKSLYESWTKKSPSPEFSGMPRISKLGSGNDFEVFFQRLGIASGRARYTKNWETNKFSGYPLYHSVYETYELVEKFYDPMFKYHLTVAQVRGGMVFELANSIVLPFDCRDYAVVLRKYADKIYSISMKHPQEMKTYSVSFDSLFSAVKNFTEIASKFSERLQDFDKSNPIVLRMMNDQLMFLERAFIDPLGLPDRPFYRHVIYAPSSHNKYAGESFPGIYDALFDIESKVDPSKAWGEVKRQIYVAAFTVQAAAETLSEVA
T3 sequence (Q07011 24-255 limits assumed): as the sequence (Q07011 24-255 limits assumed) above

B1: PSMA binding single VH domain antibody 4.1 (VHH)
VHH: EVQLVESGGGVVQPGRSLRLSCAASGFSFSGYGMHWVRQAPGKGLEWVAYISYDGSNKYYADSVKGRFTISRDNSKNTLYLQMNSLRAEDTAVYYCAKDPAWGLRLGESSSYDFDIWGQGTMVTVSS
notes: human single VH domain, PSMA specific
Turning to B1, the EC50 (usually the concentration giving half of the maximal effect) in [1] was 0.19 nM. This molecule also displayed an EC50 in test [2] of 0.17 nM. In [3], the Kd (as a rule, the free concentration of one partner at which half of the binding sites on the other are occupied at equilibrium, for simple one-to-one binding) came out at 0.53 nM; the koff (as a rule, the first-order rate constant of dissociation) is 0.00016 s⁻¹; the kon – broadly, the rate constant with which the complex forms – was 310000 M⁻¹ s⁻¹.

B2: 4.1-6GS-1.1-6GS-VH (MSA) (bispecific antibody)
chain: EVQLVESGGGVVQPGRSLRLSCAASGFSFSGYGMHWVRQAPGKGLEWVAYISYDGSNKYYADSVKGRFTISRDNSKNTLYLQMNSLRAEDTAVYYCAKDPAWGLRLGESSSYDFDIWGQGTMVTVSSGGGGSGGGGSGGGGSGGGGSGGGGSGGGGSEVQLVESGGGLVQPGGSLRLSCAASGFTFSSHWMTWFRQAPGKGLEWVAHIKEDGSEKYYEDSVEGRFTVSRDNAKNSVYLQMNSLRAEDTAVYYCARGGDGYSDSHFGVDVWGQGTTVTVSSGGGGSGGGGSGGGGSGGGGSGGGGSGGGGSQVQLVESGGGLVQPGGSLRLSCAASGFTFSSYAMSWVRQAPGKGLEWVATISDSGSSADYADSVKGRFTISRDNSKNTLYLQMNSLRAEDTAVYYCARGRYNWNPRALGIWGQGTMVTVSS
notes: trispecific tandem VH (PSMA, CD137, mouse serum albumin); also called 4.1-6GS-1.1-VH (MSA); 4.1-6GS-1.1-6GS-MSA; not shown: His tag
For the molecule B2, the EC50 in test [4] was 0.58 nM; in [1], 0.36 nM; in [2], 0.32 nM.

B3: Humabody VH 2.2 (VHH)
VH: EVQLVESGGGLVKPGGSLRVSCAASGFTFSDYYMSWFRQAPGKGLEWVSYISGSGDIIDYADSVKGRFTISRDNAKNSLYLQMNSLRAEDTAVYHCAKEDSRIPGTTDFDNWGQGTLVTVSSHHHHHH
notes: human single VH domain
As for B3, the EC50 in [4] turned out to be 0.18 nM; in [6], 0.91 nM; in test [7], 0.56 nM; in test [8] it was 0.74 nM. The binding result in test [5] is reported as “no binding”; in test [9], “no binding (tested: 1 ug/ml)”; in test [10], “no binding (tested: 1 ug/ml)”.
